{"source": "paper PMC11054746", "about": "“GRPR-Antagonists Carrying DOTAGA-Chelator via Positively Charged Linkers: Perspectives for Prostate Cancer Theranostics” (Pharmaceutics, 2024)", "key": {"[1]": {"test": "Radiochemical stability: indium release in PBS or with EDTA excess, by iTLC", "assay_type": "physicochemical", "conditions": "room temperature, 0.2 M citric acid, mean ± sd, n = 3", "description": "The radiochemical yield was analyzed with instant thin layer chromatography (iTLC) strips (Agilent Technologies, Santa Clara, CA, USA), using 0.2 M citric acid buffer as a mobile phase (Rf = 0 for the radiolabeled peptide and Rf = 1 for free indium). The iTLC results were analyzed using Cyclone® Plus Phosphorimager (PerkinElmer, Hägersten, Sweden). The radiochemical stability was determined by incubating the radiolabeled compounds with phosphate-buffered saline (PBS) or a 1000-fold molar excess of ethylenediaminetetraacetic acid (EDTA) for 1 h at room temperature. The percentage of indium release was assessed by iTLC using 0.2 M citric acid as mobile phase. Stability tests were performed in triplicate for each compound."}, "PC-3 cells": {"tested_on": "PC-3 cells", "test": "Cellular internalization", "assay_type": "cell-based, human", "conditions": "1 nM, acid wash, mean of 3 dishes ± sd, normalized to maximum cell association at 24 h", "description": "For the cellular internalization assay, PC-3 cells (1 × 10^6 cells/dish) were used. The cells were incubated with 1 mL (1 nM) of solution containing the radiolabeled peptide under evaluation. At the 4 h and 24 h time points, the cells were treated with an acid wash (0.2 M glycine buffer with 0.15 M NaCl and 4 M urea, pH 2) for 5 min on ice to remove the membrane-bound peptide. After collection of acid fractions, the cells were treated with 1 M NaOH for at least 30 min and the cell debris were scraped and collected. The activity content in samples was measured using the gamma counter."}, "in vivo": {"test": "in vivo", "set-up": "species or system BALB/C nu/nu mice", "conditions": "BALB/C nu/nu, mouse, iv, total radioactivity", "description": "(§1) All in vivo studies were performed following European guidelines on laboratory animal protection. The in vivo stability experiments were carried out in healthy male Swiss albino mice; the study protocol was approved by the Department of Agriculture and Veterinary Service of the Prefecture of Athens (protocol number #440448, 01-06-2021). The biodistribution, in vivo targeting specificity assay, and SPECT/CT imaging experiments were carried out on BALB/C nu/nu mice. The Ethics Committee for Animal Research in Uppsala (Sweden) approved the latter in vivo animal studies (permit number 00473/21). The BALB/C nu/nu mice were implanted with GRPR-positive prostate cancer xenografts by subcutaneous injection on the right hind leg of PC-3 cells suspended in PBS (7 × 10^6 cells/mouse) four weeks before the biodistribution studies.\n(§2) The mice were iv injected with 40 pmol peptide (30 kBq in a total volume of 100 μL 1% bovine serum albumin (BSA) in PBS). […] At the indicated time points, mice were euthanized under anesthesia. The organs of interest were collected, weighed, and the sample radioactivity content was measured on the gamma counter. The percentage of injected activity per gram (%IA/g) of collected tumors, organs and tissues, the %IA for the remaining gastrointestinal tract and carcass, as well as the tumor-to-organ ratios (T/O) were calculated."}, "PC-3 xenografts": {"tested_on": "PC-3 xenografts", "test": "in vivo", "set-up": "species or system BALB/C nu/nu mice", "conditions": "mouse", "description": "as §1, §2"}, "[2]": {"conditions": "40 pmol, GI (gastrointestinal tract, GIT) uptake"}}, "data": [{"compound": "CC(C)C[C@H](NC(=O)C[C@H](O)[C@H](CC(C)C)NC(=O)[C@H](Cc1c[nH]cn1)NC(=O)CN(C)C(=O)[C@@H](NC(=O)[C@H](C)NC(=O)[C@H](Cc1c[nH]c2ccccc12)NC(=O)[C@H](CCC(N)=O)NC(=O)[C@@H](Cc1ccccc1)NC(=O)CN1CCC(NC(=O)COCCOCCNC(=O)CCC(C(=O)O)N2CCN(CC(=O)O)CCN(CC(=O)O)CCN(CC(=O)O)CC2)CC1)C(C)C)C(N)=O", "note": "(some centres unmarked) [[^111In]In-AU-RM26-M2, metal not drawn]", "values": [{"measurement": "released [111In]In3+, ×1000 EDTA (1 h)", "setting": "[1]; 1000-fold molar excess of EDTA", "value": "5.7 ± 0.7% (3)"}, {"measurement": "released [111In]In3+, PBS", "setting": "[1]; incubation in PBS, 1 h", "value": "5.7 ± 0.2% (3)"}, {"measurement": "internalized fraction at 24 h", "setting": "PC-3 cells", "value": "23 ± 2", "unit": "%"}, {"measurement": "tissue uptake at 4 h", "setting": "in vivo; 40 pmol, Blood uptake", "value": "0.003 ± 0.002", "unit": "%ID/g"}, {"measurement": "tissue uptake at 24 h", "setting": "in vivo; 40 pmol, Blood uptake", "value": "0.01 ± 0.002", "unit": "%ID/g"}, {"measurement": "tissue uptake at 4 h", "setting": "in vivo; 40 pmol, Bone uptake", "value": "0.05 ± 0.03", "unit": "%ID/g"}, {"measurement": "tissue uptake at 24 h", "setting": "in vivo; 40 pmol, Bone uptake", "value": "0.04 ± 0.02", "unit": "%ID/g"}, {"measurement": "tissue uptake dose at 4 h", "setting": "in vivo; 40 pmol, Carcass (whole body) uptake", "value": "0.8 ± 0.1", "unit": "%ID"}, {"measurement": "tissue uptake dose at 24 h", "setting": "in vivo; 40 pmol, Carcass uptake", "value": "0.5 ± 0.2", "unit": "%ID"}, {"measurement": "tissue uptake dose at 4 h", "setting": "in vivo; [2]", "value": "0.8 ± 0.5", "unit": "%ID"}, {"measurement": "tissue uptake dose at 24 h", "setting": "in vivo; [2]", "value": "0.13 ± 0.03", "unit": "%ID"}, {"measurement": "tissue uptake at 4 h", "setting": "in vivo; 40 pmol, Kidneys uptake", "value": "5 ± 1", "unit": "%ID/g"}, {"measurement": "tissue uptake at 24 h", "setting": "in vivo; 40 pmol, Kidneys uptake", "value": "4.1 ± 0.4", "unit": "%ID/g"}, {"measurement": "tissue uptake at 4 h", "setting": "in vivo; 40 pmol, Liver uptake", "value": "0.12 ± 0.01", "unit": "%ID/g"}, {"measurement": "tissue uptake at 24 h", "setting": "in vivo; 40 pmol, Liver uptake", "value": "0.11 ± 0.01", "unit": "%ID/g"}, {"measurement": "tissue uptake at 4 h", "setting": "in vivo; 40 pmol, Lungs uptake", "value": "0.05 ± 0.01", "unit": "%ID/g"}, {"measurement": "tissue uptake at 24 h", "setting": "in vivo; 40 pmol, Lungs uptake", "value": "0.05 ± 0.02", "unit": "%ID/g"}, {"measurement": "tissue uptake at 4 h", "setting": "in vivo; 40 pmol, Muscle uptake", "value": "0.02 ± 0.01", "unit": "%ID/g"}, {"measurement": "tissue uptake at 24 h", "setting": "in vivo; 40 pmol, Muscle uptake", "value": "0.02 ± 0.01", "unit": "%ID/g"}, {"measurement": "tissue uptake at 4 h", "setting": "in vivo; 40 pmol, Pancreas uptake", "value": "0.37 ± 0.08", "unit": "%ID/g"}, {"measurement": "tissue uptake at 24 h", "setting": "in vivo; 40 pmol, Pancreas uptake", "value": "0.15 ± 0.03", "unit": "%ID/g"}, {"measurement": "tissue uptake at 4 h", "setting": "in vivo; 40 pmol, Small Int uptake", "value": "0.1 ± 0.06", "unit": "%ID/g"}, {"measurement": "tissue uptake at 24 h", "setting": "in vivo; 40 pmol, Small Int uptake", "value": "0.06 ± 0.03", "unit": "%ID/g"}, {"measurement": "tissue uptake at 4 h", "setting": "in vivo; 40 pmol, Spleen uptake", "value": "0.07 ± 0.02", "unit": "%ID/g"}, {"measurement": "tissue uptake at 24 h", "setting": "in vivo; 40 pmol, Spleen uptake", "value": "0.07 ± 0.01", "unit": "%ID/g"}, {"measurement": "tissue uptake at 4 h", "setting": "in vivo; 40 pmol, Tumor uptake", "value": "7 ± 2", "unit": "%ID/g"}, {"measurement": "tissue uptake at 24 h", "setting": "in vivo; 40 pmol, Tumor uptake", "value": "4.9 ± 0.7", "unit": "%ID/g"}, {"measurement": "tissue uptake dose at 4 h", "setting": "in vivo; Carcass uptake, Block", "value": "1 ± 0.5", "unit": "%ID"}, {"measurement": "tissue uptake dose at 4 h", "setting": "in vivo; GI (gastrointestinal tract, GIT) uptake, Block", "value": "0.46 ± 0.03", "unit": "%ID"}, {"measurement": "kidney uptake at 24 h pi retained as % of the 4 h renal value", "setting": "PC-3 xenografts", "value": "> 80", "unit": "%"}, {"measurement": "pancreas uptake at 24 h pi as % of the initial 4 h uptake", "setting": "PC-3 xenografts", "value": 40, "unit": "%"}, {"measurement": "tumor uptake at 24 h pi as % of the 4 h value", "setting": "PC-3 xenografts", "value": 70, "unit": "%"}]}]}
